The target of experiment [1] is ferritin-PreF fusion protein RSV-PreF-C-NP (respiratory syncytial virus (Pre-F part); species of the ferritin not stated). Nature of the experiment: ELISA, fusion protein coated, F protein antibody 1:1500 as primary; protein kept 1 h at pH 7.4, 25 C (untreated reference); mean of 10- to 10000-fold dilutions.
Experiment [2] deals with ferritin-PreF fusion protein RSV-PreF-B-NP (respiratory syncytial virus (Pre-F part); species of the ferritin not stated). Nature of the experiment: ELISA with F protein antibody after 1 h at pH 3.8, pH 10, 50 C or 70 C.
In experiment [3] the target is ferritin-PreF fusion protein RSV-PreF-H-NP (respiratory syncytial virus (Pre-F part); species of the ferritin not stated). The description is as above.
Experiment [4] addresses ferritin-PreF fusion protein RSV-PreF-F-NP (respiratory syncytial virus (Pre-F part); species of the ferritin not stated). The description is as above.
In experiment [5] the target is ferritin-PreF fusion protein RSV-PreF-E-NP (respiratory syncytial virus (Pre-F part); species of the ferritin not stated). The experiment is described as above.
Experiment [6] concerns the target ferritin-PreF fusion protein RSV-PreF-G-NP (respiratory syncytial virus (Pre-F part); species of the ferritin not stated). Described as above.
Experiment [7] concerns the target ferritin-PreF fusion protein RSV-PreF-D-NP (respiratory syncytial virus (Pre-F part); species of the ferritin not stated). The experiment is described as above.
Experiment [8] deals with ferritin-PreF fusion protein RSV-PreF-A-NP (respiratory syncytial virus (Pre-F part); species of the ferritin not stated). The experiment is described as above.
Experiment [9] concerns the target ferritin-PreF fusion protein RSV-PreF-C-NP (respiratory syncytial virus (Pre-F part); species of the ferritin not stated). Described as above.
The target is the same in experiment [10]. Nature of the experiment: ELISA, fusion protein coated, F protein antibody 1:1500 as primary; protein kept 1 h at pH 3.8, 25 C; against untreated protein; mean of 10- to 10000-fold dilutions.
Experiment [11] has the same target. Description: ELISA, fusion protein coated, F protein antibody 1:1500 as primary; protein kept 1 h at pH 10, 25 C; against untreated protein; mean of 10- to 10000-fold dilutions.
Experiment [12] has the same target. Nature of the experiment: ELISA, fusion protein coated, F protein antibody 1:1500 as primary; protein kept 1 h at 70 C, pH 7.4; against untreated protein; mean of 10- to 10000-fold dilutions.
For experiment [13] the target is unchanged. Nature of the experiment: ELISA, fusion protein coated, F protein antibody 1:1500 as primary; protein kept 1 h at 50 C, pH 7.4; against untreated protein; mean of 10- to 10000-fold dilutions.

As for “F protein antibody (PujianBiotech (Wuhan), Cat #62814)”, the Percentage of ELISA Signal Intensity Retained After Physical Stress Challenges in experiment [1] amounted to 100%; in experiment [10] it was 77.3%; in experiment [11], 83.6%; in experiment [12], 77.1%; in experiment [13], 91.2%. The antigen-binding activity retained against the original untreated protein in experiment [2], in [3], in [4], in [5], in experiment [6] and in experiment [7] was over 75% throughout. Besides, the antigen-binding activity retained against the original untreated protein in experiment [8] and in experiment [9] was over 75% in each case.

The values are drawn from patent publication US20250387465A1.
